In the data set the test system is MS2 coat protein. The data set can be described thus: apparent KD of MS2 coat protein; designed switch direction (-1 OFF switch, 1 ON switch): -1; higher = weaker reporter binding. Summed up:
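The apparent KD reported per design is the median over clusters of curve fits to normalised cluster fluorescence. The RNA switches were transcribed on Illumina chips by stalled E. coli RNA polymerase. SNAP-549-labelled MS2 coat protein was titrated from 0.7 or 1.5 nM, doubling up to 3 µM, in Tris-HCl pH 7.5 buffer containing KCl, MgCl2, BSA, DTT, tRNA and Tween-20, with no input, 200 uM small-molecule ligand, or an oligonucleotide input.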

The mark [1] stands for this setting: input ligand: microRNA oligo, concentration not stated.
Setting [2] is: Eterna round: R95, input ligand: microRNA oligo, concentration not stated.

Consider “UUAUUACAAGCAAGAUCCCACAUGAGGAUCACCCAUGUGCUCGUCUUAUAAGGUACAGUGACGAAAGUCACAGUACC [Sensor 3, v1 - 0] (Eterna round: R96, puzzle: Sensor v3, turn-off variant 1)”, for which the “apparent KD of MS2 coat protein” value turned out to be 23.1 nM (input ligand: FMN 200 uM), 369 nM under setting [1] and 25.9 nM (input ligand: none).

For “UCUGGUCGAGGAUAUGCAAUCGUGCUUCGGCACGUAAGGUCACAUGAGGAUCACCCAUGUAGAAGGCGACCAGA [E2/4-A3] (Eterna round: R97, puzzle: Exclusion 2)”, the “apparent KD of MS2 coat protein” value is, setting by setting: (input ligand: FMN 200 uM) 34.4 nM; (input ligand: none) 17.3 nM.

Take “CUGUGCUGACGGAGAUCCAACAUGAGGAUCACCCAUGUCUCAAAAGCUUUUUGCUCGUCUUAUCCUCCUCAGUACAC [Mat - Sensor, turn-off var - Eli Mod - D56] (Eterna round: R97, puzzle: Sensor, turn-off variant 1)”: the “apparent KD of MS2 coat protein” value reads like this: (input ligand: FMN 200 uM) 17.7 nM; (input ligand: none) 17.2 nM.

With “GCGUAUGAGCAGGAUAUCCCGCGGGAAUCCAUAGGAGAAGGGCUCACAUGAGGAUCACCCAUGUGGUCCAGAAA [Isisan] (puzzle: Exclusion 6)”, the “apparent KD of MS2 coat protein” value (Eterna round: R95, input ligand: FMN 200 uM) worked out at 20.2 nM; the “apparent KD of MS2 coat protein” value under setting [2] came out at 16.1 nM; the “apparent KD of MS2 coat protein” value (Eterna round: R95, input ligand: none) amounted to 18 nM.

With “AGCUGUGGCCGAGGAUAUCUACUAAUCCAAACCGAAAUAUAAUCGGACAUGAGGAUCACCCAUGUAGAGAAGGCGGUCUCAGCA [Eli eng2 - 076] (Eterna round: R96, puzzle: Exclusion NG 2)”, under setting [1], the “apparent KD of MS2 coat protein” value worked out at 199 nM.

Regarding “CUGAUGUGAGGAUAUCUACGCCAUGUCUUUGACAUGGCGCAAGAGAAGGCACAUGAGGAUCACCCAUGUACUUC [jl-ex4-4.41 ViennaUCT mod] (Eterna round: R97, puzzle: Exclusion 4)”, the “apparent KD of MS2 coat protein” value (input ligand: FMN 200 uM) came to 143 nM and the “apparent KD of MS2 coat protein” value (input ligand: none) amounted to 27.9 nM.

In the case of “UGAACAUGAGGAUCACCCAUGUGGUUAGGUGAAAUCCUGCUGGAGGAUAUAAGUCCUGGUGCCGCUUAGAAGGCCAGCUGACAG [Eternabot solution 48] (Eterna round: R96, puzzle: Exclusion NG 3)”, the “apparent KD of MS2 coat protein” value came out at 72 nM (input ligand: FMN 200 uM), 56.7 nM under setting [1] and 82.5 nM (input ligand: none).

On to “AAACAAGCUCGGGUGAGGGAGACCACAGAAGGACCCAAAACAUGAGGAUCACCCAUGUCAAGAGUAGAGCUUGGCAU [high scoring solution 31] (Eterna round: R96, puzzle: Sensor v2, turn-off variant 2)”, for which the “apparent KD of MS2 coat protein” value by setting is: (input ligand: FMN 200 uM) 71 nM; under setting [1], 57.4 nM; (input ligand: none) 75.4 nM.

On to “AAAUUGUGAGGAUAUUCGUAGUACUCGGAGACGAGUAUUACGGAGAAGGCACAUGAGGAUCACCCAUGUUCCUU [Mat - Exclusion 4 - JL Mod - D20] (Eterna round: R97, puzzle: Exclusion 4)”, for which the “apparent KD of MS2 coat protein” value (input ligand: FMN 200 uM) is 88.3 nM and the “apparent KD of MS2 coat protein” value (input ligand: none) is 16.3 nM.

In the case of “GGUGCGUUUGUGAGGAUAUGCUGGUCCUUGGCUCAGCAGAAGGCACAUGAGGAUCACCCAUGUGGUGUCGUACC [salish99_Bmod_Ex4_033] (puzzle: Brourd's mod of Exclusion 4)”, the “apparent KD of MS2 coat protein” value under setting [2] was 239 nM.

Regarding “UAUUUAGCAAGCAGAUCCUACAUGAGGAUCACCCAUGUGCUCUGAACGUACAGAAUUACUGUACGAGCUCGUCUUAU [Winner reversed engineered 29] (Eterna round: R97, puzzle: Sensor, turn-off variant 1)”, the “apparent KD of MS2 coat protein” value (input ligand: FMN 200 uM) amounted to 166 nM and the “apparent KD of MS2 coat protein” value (input ligand: none) is 198 nM.

On to “CGCCUGGGAGGAUAUCCAAUAUAUGACAUGAGGAUCACCCAUGUUUCCACUCGUACCUCCGGAGAAGGCCCGGCGC [Ex5 #30] (Eterna round: R97, puzzle: Exclusion 5)”, for which the “apparent KD of MS2 coat protein” value was 23.1 nM (input ligand: FMN 200 uM) and 25.2 nM (input ligand: none).

For the origin of these results see the supplement of paper PMC9170038.
